Experiments:
HeLa Kyoto [1] = experiment: solubility in G1/S (NP-40 vs SDS abundance) (log2 ratio); higher = more soluble; details: cell cycle stage: G1/S
HeLa Kyoto [2] = experiment: melting temperature (median over replicates), in situ; higher = more thermally stable
HeLa Kyoto [3] = experiment: solubility change mitosis vs G1/S (difference of NP-40 vs SDS log2 ratios) (log2 ratio difference); higher = more soluble in mitosis
HeLa Kyoto [4] = experiment: thermal stability score vs G1/S (z-score of summed log2 fold changes over temperatures); higher = more thermally stable than in G1/S
[5] = cell cycle stage: early G1 (4.5 h after nocodazole release)
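Wherever melting temperature (median over replicates), in situ is given: HeLa Kyoto cells synchronized by double thymidine or nocodazole block, proteins quantified by TMT10plex mass spectrometry, three independent biological replicates.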
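Wherever solubility change mitosis vs G1/S (difference of NP-40 vs SDS log2 ratios) is given: synchronized HeLa Kyoto cells (double thymidine block for G1/S, nocodazole release for mitosis), protein amounts in NP-40 versus SDS lysates quantified by mass spectrometry, three biological replicates.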
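Wherever solubility in G1/S (NP-40 vs SDS abundance) is given: HeLa Kyoto cells arrested at G1/S by double thymidine block, proteins quantified by TMT10plex mass spectrometry in mild NP-40 versus SDS extracts, three biological replicates.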
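Wherever thermal stability score vs G1/S (z-score of summed log2 fold changes over temperatures) is given: synchronized HeLa Kyoto cells, proteins quantified by TMT10plex mass spectrometry, three biological replicates, mitosis taken 0.5 h after nocodazole release, G1/S directly after double thymidine block.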

Sequence of SLTM (chain, as listed by the source): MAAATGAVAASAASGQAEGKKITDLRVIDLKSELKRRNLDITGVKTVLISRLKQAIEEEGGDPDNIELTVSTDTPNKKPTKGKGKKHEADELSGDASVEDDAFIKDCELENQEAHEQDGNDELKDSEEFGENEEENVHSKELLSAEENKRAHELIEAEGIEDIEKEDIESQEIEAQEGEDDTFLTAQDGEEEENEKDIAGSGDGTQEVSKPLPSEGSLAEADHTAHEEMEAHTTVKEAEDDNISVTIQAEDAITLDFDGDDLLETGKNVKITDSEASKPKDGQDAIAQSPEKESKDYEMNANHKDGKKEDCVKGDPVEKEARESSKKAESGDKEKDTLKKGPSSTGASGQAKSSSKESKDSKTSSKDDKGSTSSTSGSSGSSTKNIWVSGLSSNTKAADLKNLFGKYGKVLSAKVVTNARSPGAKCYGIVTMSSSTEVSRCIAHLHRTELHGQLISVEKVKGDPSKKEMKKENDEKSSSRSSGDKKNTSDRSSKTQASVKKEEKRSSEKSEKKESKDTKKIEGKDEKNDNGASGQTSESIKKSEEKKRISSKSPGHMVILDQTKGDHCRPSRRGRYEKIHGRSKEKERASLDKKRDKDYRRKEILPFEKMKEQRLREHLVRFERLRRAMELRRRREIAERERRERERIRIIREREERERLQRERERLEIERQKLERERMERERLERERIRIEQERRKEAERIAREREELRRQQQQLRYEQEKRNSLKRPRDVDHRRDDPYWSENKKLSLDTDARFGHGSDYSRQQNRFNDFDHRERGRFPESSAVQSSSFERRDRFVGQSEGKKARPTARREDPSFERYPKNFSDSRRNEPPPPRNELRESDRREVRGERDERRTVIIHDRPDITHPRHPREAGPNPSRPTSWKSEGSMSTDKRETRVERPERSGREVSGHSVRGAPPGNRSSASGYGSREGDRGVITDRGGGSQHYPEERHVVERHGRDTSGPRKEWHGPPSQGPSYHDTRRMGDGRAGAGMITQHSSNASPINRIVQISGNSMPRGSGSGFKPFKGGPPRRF

Substance | solubility in G1/S (log2) (HeLa Kyoto [1]) | melting temperature (HeLa Kyoto [2]; cell cycle stage: G1/S) | melting temperature (HeLa Kyoto [2]; cell cycle stage: mitosis) | solubility change mitosis (log2) (HeLa Kyoto [3]) | thermal stability score (HeLa Kyoto [4]; [5]) | thermal stability score (HeLa Kyoto [4]; cell cycle stage: mitosis)
MAEGGAADLDTQRSDIATLLKTSLRKGDTWYLVDSRWFKQWKKYVGFDSWDKYQMGDQNVYPGPIDNSGLLKDGDAQSLKEHLIDELDYILLPTEGWNKLVSWYTLMEGQEPIARKVVEQGMFVKHCKVEVYLTELKLCENGNMNNVVTRRFSKADTIDTIEKEIRKIFSIPDEKETRLWNKYMSNTFEPLNKPDSTIQDAGLYQGQVLVIEQKNEDGTWPRGPSTPKSPGASNFSTLPKISPSSLSNNYNNMNNRNVKNSNYCLPSYTAYKNYDYSEPGRNNEQPGLCGLSNLGNTCFMNSAIQCLSNTPPLTEYFLNDKYQEELNFDNPLGMRGEIAKSYAELIKQMWSGKFSYVTPRAFKTQVGRFAPQFSGYQQQDCQELLAFLLDGLHEDLNRIRKKPYIQLKDADGRPDKVVAEEAWENHLKRNDSIIVDIFHGLFKSTLVCPECAKISVTFDPFCYLTLPLPMKKERTLEVYLVRMDPLTKPMQYKVVVPKIGNILDLCTALSALSGIPADKMIVTDIYNHRFHRIFAMDENLSSIMERDDIYVFEININRTEDTEHVIIPVCLREKFRHSSYTHHTGSSLFGQPFLMAVPRNNTEDKLYNLLLLRMCRYVKISTETEETEGSLHCCKDQNINGNGPNGIHEEGSPSEMETDEPDDESSQDQELPSENENSQSEDSVGGDNDSENGLCTEDTCKGQLTGHKKRLFTFQFNNLGNTDINYIKDDTRHIRFDDRQLRLDERSFLALDWDPDLKKRYFDENAAEDFEKHESVEYKPPKKPFVKLKDCIELFTTKEKLGAEDPWYCPNCKEHQQATKKLDLWSLPPVLVVHLKRFSYSRYMRDKLDTLVDFPINDLDMSEFLINPNAGPCRYNLIAVSNHYGGMGGGHYTAFAKNKDDGKWYYFDDSSVSTASEDQIVSKAAYVLFYQRQDTFSGTGFFPLDRETKGASAATGIPLESDEDSNDNDNDIENENCMHTN [USP15] | 0.00479 | 49.8 °C | 49.9 °C | -0.118 | -0.274 | 0.549
MEMFTFLLTCIFLPLLRGHSLFTCEPITVPRCMKMAYNMTFFPNLMGHYDQSIAAVEMEHFLPLANLECSPNIETFLCKAFVPTCIEQIHVVPPCRKLCEKVYSDCKKLIDTFGIRWPEELECDRLQYCDETVPVTFDPHTEFLGPQKKTEQVQRDIGFWCPRHLKTSGGQGYKFLGIDQCAPPCPNMYFKSDELEFAKSFIGTVSIFCLCATLFTFLTFLIDVRRFRYPERPIIYYSVCYSIVSLMYFIGFLLGDSTACNKADEKLELGDTVVLGSQNKACTVLFMLLYFFTMAGTVWWVILTITWFLAAGRKWSCEAIEQKAVWFHAVAWGTPGFLTVMLLAMNKVEGDNISGVCFVGLYDLDASRYFVLLPLCLCVFVGLSLLLAGIISLNHVRQVIQHDGRNQEKLKKFMIRIGVFSGLYLVPLVTLLGCYVYEQVNRITWEITWVSDHCRQYHIPCPYQAKAKARPELALFMIKYLMTLIVGISAVFWVGSKKTCTEWAGFFKRNRKRDPISESRRVLQESCEFFLKHNSKVKHKKKHYKPSSHKLKVISKSMGTSTGATANHGTSAVAITSHDYLGQETLTEIQTSPETSMREVKADGASTPRLREQDCGEPASPAASISRLSGEQVDGKGQAGSVSESARSEGRISPKSDITDTGLAQSNNLQVPSSSEPSSLKGSTSLLVHPVSGVRKEQGGGCHSDT [FZD6] | -0.0341 | 54.7 °C | 55.6 °C | 0.0773 | -1.37 | -2.82
MAFRGWRPPPPPLLLLLLWVTGQAAPVAGLGSDAELQIERRFVPDECPRTVRSGDFVRYHYVGTFPDGQKFDSSYDRDSTFNVFVGKGQLITGMDQALVGMCVNERRFVKIPPKLAYGNEGVSGVIPPNSVLHFDVLLMDIWNSEDQVQIHTYFKPPSCPRTIQVSDFVRYHYNGTFLDGTLFDSSHNRMKTYDTYVGIGWLIPGMDKGLLGMCVGEKRIITIPPFLAYGEDGDGKDIPGQASLVFDVALLDLHNPKDSISIENKVVPENCERISQSGDFLRYHYNGTLLDGTLFDSSYSRNRTFDTYIGQGYVIPGMDEGLLGVCIGEKRRIVVPPHLGYGEEGRGNIPGSAVLVFDIHVIDFHNPSDSISITSHYKPPDCSVLSKKGDYLKYHYNASLLDGTLLDSTWNLGKTYNIVLGSGQVVLGMDMGLREMCVGEKRTVIIPPHLGYGEAGVDGEVPGSAVLVFDIELLELVAGLPEGYMFIWNGEVSPNLFEEIDKDGNGEVLLEEFSEYIHAQVASGKGKLAPGFDAELIVKNMFTNQDRNGDGKVTAEEFKLKDQEAKHDEL [FKBP9] | 0.21 | 53.7 °C | 54.5 °C | -0.0483 | 4.29 | 4.83
MAGGEDRGDGEPVSVVTVRVQYLEDTDPFACANFPEPRRAPTCSLDGALPLGAQIPAVHRLLGAPLKLEDCALQVSPSGYYLDTELSLEEQREMLEGFYEEISKGRKPTLILRTQLSVRVNAILEKLYSSSGPELRRSLFSLKQIFQEDKDLVPEFVHSEGLSCLIRVGAAADHNYQSYILRALGQLMLFVDGMLGVVAHSDTIQWLYTLCASLSRLVVKTALKLLLVFVEYSENNAPLFIRAVNSVASTTGAPPWANLVSILEEKNGADPELLVYTVTLINKTLAALPDQDSFYDVTDALEQQGMEALVQRHLGTAGTDVDLRTQLVLYENALKLEDGDIEEAPGAGGRRERRKPSSEEGKRSRRSLEGGGCPARAPEPGPTGPASPVGPTSSTGPALLTGPASSPVGPPSGLQASVNLFPTISVAPSADTSSERSIYKARFLENVAAAETEKQVALAQGRAETLAGAMPNEAGGHPDARQLWDSPETAPAARTPQSPAPCVLLRAQRSLAPEPKEPLIPASPKAEPIWELPTRAPRLSIGDLDFSDLGEDEDQDMLNVESVEAGKDIPAPSPPLPLLSGVPPPPPLPPPPPIKGPFPPPPPLPLAAPLPHSVPDSSALPTKRKTVKLFWRELKLAGGHGVSASRFGPCATLWASLDPVSVDTARLEHLFESRAKEVLPSKKAGEGRRTMTTVLDPKRSNAINIGLTTLPPVHVIKAALLNFDEFAVSKDGIEKLLTMMPTEEERQKIEEAQLANPDIPLGPAENFLMTLASIGGLAARLQLWAFKLDYDSMEREIAEPLFDLKVGMEQLVQNATFRCILATLLAVGNFLNGSQSSGFELSYLEKVSEVKDTVRRQSLLHHLCSLVLQTRPESSDLYSEIPALTRCAKVDFEQLTENLGQLERRSRAAEESLRSLAKHELAPALRARLTHFLDQCARRVAMLRIVHRRVCNRFHAFLLYLGYTPQAAREVRIMQFCHTLREFALEYRTCRERVLQQQQKQATYRERNKTRGRMITETEKFSGVAGEAPSNPSVPVAVSSGPGRGDADSHASMKSLLTSRPEDTTHNRRSRGMVQSSSPIMPTVGPSTASPEEPPGSSLPSDTSDEIMDLLVQSVTKSSPRALAARERKRSRGNRKSLRRTLKSGLGDDLVQALGLSKGPGLEV [FHOD1] | 0.185 | 48 °C | 48.1 °C | -0.13 | 1.05 | 2.72
EED | -0.587 | 49.7 °C | 50.2 °C | 0.102 | 1.42 | 1.21
SLTM | -1.17 | 51.1 °C | 51.4 °C | 0.595 | 0.205 | 2.43
MASEEASLRALESLMTEFFHDCTTNERKREIEELLNNFAQQIGAWRFCLYFLSSTRNDYVMMYSLTVFENLINKMWLGVPSQDKMEIRSCLPKLLLAHHKTLPYFIRNKLCKVIVDIGRQDWPMFYHDFFTNILQLIQSPVTTPLGLIMLKTTSEELACPREDLSVARKEELRKLLLDQVQTVLGLLTGILETVWDKHSVTAATPPPSPTSGESGDLLSNLLQSPSSAKLLNQPIPILDVESEYICSLALECLAHLFSWIPLSASITPSLLTTIFHFARFGCDIRARKMASVNGSSQNCVSGQERGRLGVLAMSCINELMSKNCVPMEFEEYLLRMFQQTFYLLQKITKDNNAHTVKSRLEELDESYIEKFTDFLRLFVSVHLRRIESYSQFPVVEFLTLLFKYTFHQPTHEGYFSCLDIWTLFLDYLTSKIKSRLGDKEAVLNRYEDALVLLLTEVLNRIQFRYNQAQLEELDDETLDDDQQTEWQRYLRQSLEVVAKVMELLPTHAFSTLFPVLQDNLEVYLGLQQFIVTSGSGHRLNITAENDCRRLHCSLRDLSSLLQAVGRLAEYFIGDVFAARFNDALTVVERLVKVTLYGSQIKLYNIETAVPSVLKPDLIDVHAQSLAALQAYSHWLAQYCSEVHRQNTQQFVTLISTTMDAITPLISTKVQDKLLLSACHLLVSLATTVRPVFLISIPAVQKVFNRITDASALRLVDKAQVLVCRALSNILLLPWPNLPENEQQWPVRSINHASLISALSRDYRNLKPSAVAPQRKMPLDDTKLIIHQTLSVLEDIVENISGESTKSRQICYQSLQESVQVSLALFPAFIHQSDVTDEMLSFFLTLFRGLRVQMGVPFTEQIIQTFLNMFTREQLAESILHEGSTGCRVVEKFLKILQVVVQEPGQVFKPFLPSIIALCMEQVYPIIAERPSPDVKAELFELLFRTLHHNWRYFFKSTVLASVQRGIAEEQMENEPQFSAIMQAFGQSFLQPDIHLFKQNLFYLETLNTKQKLYHKKIFRTAMLFQFVNVLLQVLVHKSHDLLQEEIGIAIYNMASVDFDGFFAAFLPEFLTSCDGVDANQKSVLGRNFKMDRDLPSFTQNVHRLVNDLRYYRLCNDSLPPGTVKL [XPO6] | -0.281 | 49.6 °C | 50 °C | -0.202 | 0.528 | 0.436
MSASGVLSFTQQGWEQVLAKVKRAVVYLDAACAESLHWGCGSTRLLEAVGGPDCHLREFEPDAIGGGAKQPKAVFVLSCLLKGRTVEILRDIICRSHFQYCVVVTTVSHAVHLTANHVPAAAAAEMEGQQPVFEQLEEKLCEWMGNMNYTAEVFHVPLLLAPVAPHFALTPAFASLFPLLPQDVHLLNSARPDKRKLGSLGDVDSTTLTPELLLQIRCLVSGLSSLCEHLGVREECFAVGSLSQVIAADLANYAPAKNRKKTAAGRASVVFVDRTLDLTGAVGHHGDNLVEKIISALPQLPGHTNDVMVNMIALTALHTEEENYNVVAPGCLSQSSDTTAKALWEALLNTKHKEAVMEVRRHLVEAASRENLPIKMSMGRVTPGQLMSYIQLFKNNLKALMNHCGLLQLGLATAQTLKHPQTAKWDNFLAFERLLLQSIGESAMSVVLNQLLPMIKPVTQRTNEDYSPEELLILLIYIYSVTGELTVDKDLCEAEEKVKKALAQVFCEESGLSPLLQKITDWDSSINLTFHKSKIAVDELFTSLRDIAGARSLLKQFKSVYVPGNHTHQASYKPLLKQVVEEIFHPERPDSVDIEHMSSGLTDLLKTGFSMFMKVSRPHPSDYPLLILFVVGGVTVSEVKMVKDLVASLKPGTQVIVLSTRLLKPLNIPELLFATDRLHPDLGF [SCFD2] | -0.12 | 49.8 °C | 49.9 °C | -0.0249 | -0.157 | 0.192
MEDVEARFAHLLQPIRDLTKNWEVDVAAQLGEYLEELDQICISFDEGKTTMNFIEAALLIQGSACVYSKKVEYLYSLVYQALDFISGKRRAKQLSSVQEDRANGVASSGVPQEAENEFLSLDDFPDSRTNVDLKNDQTPSEVLIIPLLPMALVAPDEMEKNNNPLYSRQGEVLASRKDFRMNTCVPHPRGAFMLEPEGMSPMEPAGVSPMPGTQKDTGRTEEQPMEVSVCRSPVPALGFSQEPGPSPEGPMPLGGGEDEDAEEAVELPEASAPKAALEPKESRSPQQSAALPRRYMLREREGAPEPASCVKETPDPWQSLDPFDSLESKPFKKGRPYSVPPCVEEALGQKRKRKGAAKLQDFHQWYLAAYADHADSRRLRRKGPSFADMEVLYWTHVKEQLETLRKLQRREVAEQWLRPAEEDHLEDSLEDLGAADDFLEPEEYMEPEGADPREAADLDAVPMSLSYEELVRRNVELFIATSQKFVQETELSQRIRDWEDTVQPLLQEQEQHVPFDIHTYGDQLVSRFPQLNEWCPFAELVAGQPAFEVCRSMLASLQLANDYTVEITQQPGLEMAVDTMSLRLLTHQRAHKRFQTYAAPSMAQP [NCAPH2] | 0.197 | 48.5 °C | 48.6 °C | 0.0239 | -0.208 | -0.203

Reference: the supplement of paper PMC5998384
